Test results taken from PMC4498328.

How the values were obtained:
[1] = target: Barley yellow dwarf virus-GPV readthrough protein (RTP), AcGFP1 fusion (Barley yellow dwarf virus-GPV); test: co-IP; chemiluminescent Co-IP: pAcGFP1-bait and pProLabel-prey cotransfected into HEK293 cells, lysed after 48 h, anti-GFP polyclonal antibody and protein A/G agarose beads, ProLabel activity read as relative light units; negative control pAcGFP1-Lam/pProLabel-T
[2] = target: Barley yellow dwarf virus-GPV coat protein (CP), AcGFP1 fusion (Barley yellow dwarf virus-GPV); test: as above

With “cytochrome c oxidase polypeptide IV-like, ProLabel fusion (natural protein)” the relative strength of the interaction against the negative control (times the negative control) [1] was 4.2.
“nascent polypeptide-associated complex subunit alpha, ProLabel fusion (natural protein)” showed a relative strength of the interaction against the negative control (times the negative control) [2] of 1.6 and a relative strength of the interaction against the negative control (times the negative control) [1] of 4.9.
Substance “twinstar, ProLabel fusion (natural protein)” has a relative strength of the interaction against the negative control (times the negative control) [1] of 7.1.
Work on “pancreatic lipase-related protein, ProLabel fusion (natural protein)” yielded a relative strength of the interaction against the negative control (times the negative control) [2] of 3 and a relative strength of the interaction against the negative control (times the negative control) [1] of 23.
“complexin, ProLabel fusion (natural protein)” showed a relative strength of the interaction against the negative control (times the negative control) [1] of 5.6.
For “tropomyosin, ProLabel fusion (natural protein)”, the relative strength of the interaction against the negative control (times the negative control) [1] was 8.7.
“cytochrome P450 4g15, ProLabel fusion (natural protein)” showed a relative strength of the interaction against the negative control (times the negative control) [1] of 3.4.
